According to the supplement of paper PMC10126150:
± gives the standard deviation of the averaged measurements.

Test system: ATP
Experiment: switch fluorescence ratio, 500 uM ATP over buffer (Cy3 cluster intensity, sum of 5 cycles each) (fold (ratio)); higher = stronger signal-on switching upon ATP binding; sequences stand for … in TCGTCGGCAGCGTCAGATGTGTATAAGAGACAGTTTTTTTTTTTTTTTTTTTTTTTTT…TC
Conditions: aptamer strand: ATP DNA aptamer (quencher-CACCTGGGGGAGTATTGCGGAGGAAGG + anchor), 100 nM annealed; ATP concentration: 500 uM
Method in brief: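 After annealing to 100 nM quencher-labelled ATP aptamer, Cy3-labelled switching-strand clusters on a modified Illumina MiSeq flow-cell were imaged in selection buffer. A second image followed after 15 min with 500 uM ATP at 22 °C, and five such buffer/ATP cycles were done, each separated by NaOH stripping and re-annealing. The fluorescence ratio, averaged per switch-domain sequence, is summed target-cycle over summed buffer-cycle Cy3 intensity per cluster, with clusters outside 100-1000 RFU excluded.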
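Further: ATP exposure 15 min at 22 °C before imaging.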

Sequence	switch fluorescence ratio
AACTGTTCTT	1.01 ± 0.011
TGTGGTTGGA	1 ± 0.012
TTACTCAGCC	1.12 ± 0.055
TATTCTACCA	1.01 ± 0.011
TGGGGGGAAA	1.01 ± 0.054
TTTGCTTTAA	1 ± 0.067
GATCTAAAAG	1.03 ± 0.017
CAGGATTCTG	1.03 ± 0.059
GGGGTAGTCG	0.988 ± 0.012
GACCTGTTTT	0.987 ± 0.063
AAGGGCCAGC	0.9896 ± 0.0042
CGGCATAGAT	1.04 ± 0.029
CATTTCGGGT	0.992 ± 0.034
TGTGGATGGT	0.956 ± 0.019
CAAGTTCGTG	1.002 ± 0.0089
TGTTCACTTT	1.04 ± 0.036
CATCTGGTGC	1.63 ± 0.19
CATTTCTGAG	1.008 ± 0.0061
TTTCGGGAAT	1.08 ± 0.11
ATCGGGGCAC	1.1 ± 0.11
CGTATAGGTG	1.06 ± 0.077
TCTGTGTTGG	0.98 ± 0.02
TGCTATGAGG	1.01 ± 0.043
ATGCAATCAT	1.038 ± 0.0026
ACGTTGCACA	1.18 ± 0.016

Sequence	switch fluorescence ratio
CCGTGTGGCT	1.027 ± 0.0022
CGTACGGGCG	0.956 ± 0.028
GAGAATCGGT	1.03 ± 0.078
TATGGTTTTT	0.996 ± 0.015
AGGCTAACCG	0.985 ± 0.019
AAAATTTTTA	1 ± 0.021
AGTCGAAATG	0.989 ± 0.028
TGGAAAAACT	1.08 ± 0.029
ATTTTTTAGG	0.993 ± 0.025
TAAAGGCGGG	0.987 ± 0.023
TAGGTTTGCA	1.02 ± 0.039
ACGGTGCCAA	1.02 ± 0.034
ATGGCCGGCC	1.01 ± 0.02
GCGAGGCCCG	0.9944 ± 0.0017
GGTAGGTAGG	1.01 ± 0.038
GCATATCGGG	1.02 ± 0.017
GACGTTTCAG	0.95 ± 0.02
TAATTCGAG	1.04 ± 0.029
CTAATTGTGT	0.9933 ± 0.0034
TCGCGGAGGG	0.981 ± 0.019
GCAGGGAGGG	1 ± 0.041
GAATTAGGTG	1.21 ± 0.029
AGCATTGTCA	1.01 ± 0.013
ATTTTGGAGG	0.9908 ± 0.0057
CGGTCCAATC	1.37 ± 0.052

Sequence	switch fluorescence ratio
TTAATTGGTT	0.997 ± 0.031
GAGGCTTAAT	0.9822 ± 0.0078
TTTTCCAGCC	1.04 ± 0.036
CGGTCAAGAG	1.11 ± 0.019
ATAGAACGGG	1.01 ± 0.025
GAATATACCG	1.03 ± 0.042
CTTGTAATGT	1.02 ± 0.011
CGTGCATATC	2.51 ± 0.17
GTGGTGTAAT	0.992 ± 0.0023
CGGCCGAGGA	0.978 ± 0.01
TATGGGGGCT	1.04 ± 0.012
TTTTTTGACC	1.02 ± 0.044
TTAATTTGCA	1.01 ± 0.04
TTCGGGGGT	0.983 ± 0.024
TGCACTAGAA	1.01 ± 0.017
AGGTTTAAGG	0.9726 ± 0.0058
CGTTTTTTAG	0.99 ± 0.022
TGGGGATTGT	0.968 ± 0.023
GAGGGAAGTA	1.06 ± 0.17
CGATATAAGT	1 ± 0.025
TCTGGTGACG	1.04 ± 0.054
TTTTATGGCA	1.02 ± 0.021
ACTGTTGTTG	1.006 ± 0.01
ATTTTTTGCG	1 ± 0.028
ATAGTTTGAC	1.008 ± 0.0015

Sequence	switch fluorescence ratio
TATAATTAGG	0.98 ± 0.027
TTTAGCCTTT	1.06 ± 0.11
CATAGTTTTT	1.02 ± 0.025
GTTAGCTTAG	0.99 ± 0.025
GAGCTGGTGG	0.96 ± 0.019
TTGCGTGGTG	0.959 ± 0.077
GGGGTATCAT	0.983 ± 0.03
GGTGAAATGT	0.9561 ± 0.0059
GCACCTATGG	0.979 ± 0.025
GGTTGAAAAA	0.985 ± 0.053
ATGGGCTTCT	1.018 ± 0.0091
TAATTTGCAG	0.9812 ± 0.0076
CATGGGTTTG	0.9923 ± 0.0031
TTAAACGGAG	1.034 ± 0.0052
TGAGATCCCT	1.03 ± 0.039
GTGAGATCGG	0.991 ± 0.029
CTAATCATCT	1.01 ± 0.039
TTGTTTATCA	0.9865 ± 0.0096
ACTTGGGGTA	0.992 ± 0.04
AAGTAGGCGC	0.9958 ± 0.008
GGAGATTGGG	0.9697 ± 0.0033
TCAGGCGTTT	0.996 ± 0.024
AATGAGTATA	0.9915 ± 0.007
TTTGTAAGCC	1.06 ± 0.011
AGGCCGGAGC	1.06 ± 0.036
